This note sets out measurements from patent publication US5691196, “Recombinant nucleic acid containing a response element” (American Cyanamid Company).

Series [1] concerns the target T1, RXRalpha (Homo sapiens, UniProt P19793 P19793:1-462). Kind of series: cell_activity; RA vs no RA. The note with it: tags: pMT2-RXRalpha, CV-1 cells; 5' GATC overhang.
Series [2] concerns the target T2, RARalpha (UniProt P10276 P10276:1-462).
T2 sequence: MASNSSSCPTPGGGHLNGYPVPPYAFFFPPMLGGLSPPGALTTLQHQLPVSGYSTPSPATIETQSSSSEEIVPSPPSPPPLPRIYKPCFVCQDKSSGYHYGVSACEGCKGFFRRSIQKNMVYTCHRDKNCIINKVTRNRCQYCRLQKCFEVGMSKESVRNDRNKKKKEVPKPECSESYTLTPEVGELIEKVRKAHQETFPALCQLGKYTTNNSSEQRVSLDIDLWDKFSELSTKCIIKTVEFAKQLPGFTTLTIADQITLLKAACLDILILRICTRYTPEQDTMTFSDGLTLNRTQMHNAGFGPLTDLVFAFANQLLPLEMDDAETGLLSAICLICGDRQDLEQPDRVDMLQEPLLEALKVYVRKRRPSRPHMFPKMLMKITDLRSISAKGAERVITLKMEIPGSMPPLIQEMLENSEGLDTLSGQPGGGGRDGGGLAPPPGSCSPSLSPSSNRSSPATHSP
Kind of series: cell_activity; two copies of M3; RA; 500 ng RARalpha vector reverses ARP-1 repression and exceeds no-ARP-1 level. The note with it: tags: pMT2-RARalpha, CV-1 cells; 5' GATC overhang. On the procedure: A reporter construct similar to [A5']-41ALCAT but containing two copies of a mutated version of site A5' in which the sequence CCT in the spacer between the two repeats in the site A5' has been changed to TTT (M3) is tested for its responsiveness to different amounts (indicated) of the RXRα or RARα expression vectors in the presence of RA and the indicated amounts of the ARP-1 expression vector by transient transfection assays into CV-1 cells as described in FIG. 8.

The target in series [3] is T1, RXRalpha. Kind of series: cell_activity; RA vs no RA. As to conditions: tags: pMT2-RXRalpha, CV-1 cells; 5' GATC overhang. This is another data set of the same source.
Protocol: (§1) Maintenance of CV-1 cells, transfection of plasmid DNA into these cells, normalization for plasmid DNA uptake by the cells and CAT and β-galactosidase (β-gal) assays are performed as previously described in the literature. The transfection mixtures contained 5 μg of each reporter plasmid, 5 μg of the β-gal expression vector pRSV-β-gal, the amounts of the pMT2-RXRα, pMT2-RARα, pMT2-RARβ, pMT2-ARP-1 and pMT2-Ear3-COUP-TF expression vectors and the appropriate amounts of the previously described control vector pMT2-UT to bring the final amount of the plasmid DNA in the transfection mixtures to a total of 17 μg. The transfection mixtures containing the expression vectors pMT2-HNF4 or pSG5-AR, 1 μg of the β-gal expression vector pCMV-β-gal instead of the vector pRSV-β-gal is used and the final amount of plasmid DNA in the transfection mixture is adjusted to a total of 13 μg as described above.
(§2) The CAT activity in extracts from these cells is normalized for DNA uptake by the cells by conventional methods, and expressed relative to the normalized CAT activity of the construct -41ALCAT in the absence of cotransfected receptor expression vectors or any ligands (Relative CAT Activity). The data represent the average of at least two independent experiments.
Series [4] deals with T1, RXRalpha. Kind of series: cell_activity; CAT reporter, RA vs no RA. The note with it: tags: pMT2-RXRalpha, CV-1 cells; 5' GATC overhang.
Protocol: as §1, §2
Series [5] addresses T1, RXRalpha. Kind of series: cell_activity; yeast lacZ reporter, two copies, 1e-6 M 9-cis-RA; 4-fold with all-trans-RA. The note with it: protein: extract; tags: ubiquitin-fusion expression in yeast (YEpRXRalpha); label: 32P.

T1 sequence (P19793 whole entry, one chain of several): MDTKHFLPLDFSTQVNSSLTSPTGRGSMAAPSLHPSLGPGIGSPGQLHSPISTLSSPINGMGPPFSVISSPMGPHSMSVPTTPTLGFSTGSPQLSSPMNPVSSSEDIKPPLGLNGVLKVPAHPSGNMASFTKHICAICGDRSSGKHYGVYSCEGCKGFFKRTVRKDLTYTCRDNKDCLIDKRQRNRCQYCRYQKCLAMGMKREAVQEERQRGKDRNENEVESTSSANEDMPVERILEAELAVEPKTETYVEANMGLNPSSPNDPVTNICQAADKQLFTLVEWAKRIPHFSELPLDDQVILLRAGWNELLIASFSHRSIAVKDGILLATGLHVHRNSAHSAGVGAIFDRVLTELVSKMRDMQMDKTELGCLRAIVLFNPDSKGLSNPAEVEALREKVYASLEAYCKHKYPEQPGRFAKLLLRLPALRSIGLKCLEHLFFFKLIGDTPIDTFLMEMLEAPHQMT

B1: M10 (dsDNA)
DNA 1: ACTGACCTGTGACCCCTG
DNA 2: CAGGGGTCACAGGTCAGT
Molecule B1 gave an activity in series [1] below 3 fold.

B2: M3 (dsDNA)
DNA 1: ACTGAACTTTTGACCCCTG
DNA 2: CAGGGGTCAAAAGTTCAGT
B2 gave an activity in series [2] above 2 fold.

B3: M2 (dsDNA)
DNA 1: ACTGAACTGATGACCCCTG
DNA 2: CAGGGGTCATCAGTTCAGT
In series [3], B3 gave an activity below 3 fold.

B4: site A5' (dsDNA)
DNA 1: ACTGAACCCTTGACCCCTG
DNA 2: CAGGGGTCAAGGGTTCAGT
With B4, the activity in series [4] is 4.8 fold.

B5: apoAI site A (oligo A) (dsDNA)
DNA 1: ACTGAACCCTTGACCCCTGCCCT
DNA 2: AGGGCAGGGGTCAAGGGTTCAGT
B5 showed an activity in series [5] of 14 fold.

B6: M9 (dsDNA)
DNA 1: ACTGAACTGTGACCCCTG
DNA 2: CAGGGGTCACAGTTCAGT
In turn, B6 came in with an activity in series [1] below 3 fold.

B7: M4 (dsDNA)
DNA 1: ACTGACCCCTTGACCCCTG
DNA 2: CAGGGGTCAAGGGGTCAGT
For the molecule B7, the activity in series [4] came to 7 fold.
